Reference: patent publication US20190316116A1 (MONASH UNIVERSITY, published 2019)

Biological target: lysozyme (UniProt P00698 19-147)
Experiment: method not stated (data not shown)

Chain of lysozyme (P00698 19-147 limits assumed): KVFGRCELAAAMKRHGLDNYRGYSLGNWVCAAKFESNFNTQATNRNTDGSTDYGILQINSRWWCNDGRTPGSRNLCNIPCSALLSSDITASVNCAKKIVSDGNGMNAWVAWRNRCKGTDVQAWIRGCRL

Kd: ~100 µM
B1: FN3con.DE0.4.1_graft_v1 (designed binder)
chain: PSPPGNLRVTDVTSTSVTLSWRGYPWATGYRVEYREAGGEWKEVTVPGDLSHRYTVTGLKPGTEYEFRVRAVNRVGRTFDTPGPSSVSVTT
notes: Made by gene synthesis, expressed in E. coli and purified; also called the designed graft; the graft
